According to US20240252635A1 (Genmab, published 2024):

Target: T1, human CD37 (human (Homo sapiens), UniProt P11049 1-281)
T1 construct: Endogenous on Daudi cells, Raji cells and human blood B cells; also called Leukocyte Antigen CD37; GP52-40
T1 sequence: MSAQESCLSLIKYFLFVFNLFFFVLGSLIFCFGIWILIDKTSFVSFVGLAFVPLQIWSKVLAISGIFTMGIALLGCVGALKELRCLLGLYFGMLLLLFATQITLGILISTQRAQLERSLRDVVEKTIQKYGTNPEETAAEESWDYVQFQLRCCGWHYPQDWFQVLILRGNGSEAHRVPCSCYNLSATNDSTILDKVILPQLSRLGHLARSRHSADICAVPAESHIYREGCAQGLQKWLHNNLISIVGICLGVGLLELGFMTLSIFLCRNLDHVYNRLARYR
Assay: flow cytometry on HEK293 cells expressing wild type CD37 or alanine mutants, Alexa488 antibody at 3 µg/mL
Protocol: The wild type CD37 and alanine mutants were expressed individually in FreeStyle HEK293 cells according to the manufacturer's instructions (Thermo Scientific). One day post transfection the cells were harvested. […] Cells were incubated for 1 hour at room temperature. Subsequently, cells were washed twice by adding 150 μL FACS buffer and removing the supernatant after centrifugation. Cells were resuspended in 20 μL fresh FACS buffer and stored at 4° C. until analysis by flow cytometry using an iQue screener (IntelliCyt). The entire experiment was performed 2 times.

B1: bsIgG1-016-H5L2-LC90S-F405L-E430Gxb12-K409R-E430G (bispecific antibody)
heavy 1: not shown
light 1: DVVMTQSPSTLSASVGDRVTITCQASQNIDSNLAWYQQKPGKAPKFLIYYASNLPFGVPSRFKGSGSGTEFTLTISSLQPDDFATYYCQSADVGSTYVAAFGGGTKVEIKRTVAAPSVFIFPPSDEQLKSGTASVVCLLNNFYPREAKVQWKVDNALQSGNSQESVTEQDSKDSTYSLSSTLTLSKADYEKHKVYACEVTHQGLSSPVTKSFNRGEC
heavy 2: not shown
light 2: EIVLTQSPGTLSLSPGERATFSCRSSHSIRSRRVAWYQHKPGQAPRLVIHGVSNRASGISDRFSGSGSGTDFTLTITRVEPEDFALYYCQVYGASSYTFGQGTKLERKRTVAAPSVFIFPPSDEQLKSGTASVVCLLNNFYPREAKVQWKVDNALQSGNSQESVTEQDSKDSTYSLSSTLTLSKADYEKHKVYACEVTHQGLSSPVTKSFNRGEC
notes: also called antibody 016
B1: binds.
